Experimental data from the DeepSol protein solubility set.

test: soluble on expression in E. coli; label from the status in PepcDB or PDB records

Row | Sequence | soluble on expression in E. coli
1 | YLYVYKGVYATDEDVPVNPLTGERLRMGGNTSTQAYFKAGDPIWVDVNGDYIIDEKDKVIVGNSQPRMTGGISINLRYKAFSINTNCSFTLRRDIINKALADRFRAYGTPVAGKVNLTGSGALTPIEAYNFWTEDNIYAQYPNPFDYTRSSIIQPFRYDQTLFMEDGSYFKINGISVAYTIPKKMLDFFRISRCQLNFSMNNIYTFSKYSGINPENVNNLGYDTSGGYPNGRTVTFGVSMDF | not soluble
2 | MAAYYRWKSFEENEDRPEKPRRYGVTEMRGPHYSVLSQNLLQEIFESMGQFVDGLKFSGGSNSLIPKSFIKQAIEMAHEHGVYVSTGDWAEHMLRSGPSAFKDYVEECKQLGFDTIELNANLLEVPEETLLRYVRLIKNGGLRAKPMFAVKFNKSDIPGRNRAFGSYVVPEPRSSEFVEDIDLLIRKAERCLEAGADTIMIDADDVCKYADSLRADIIAKVIGRLGIEKTMFEASDAKLVEWFIKRYGPNVNLYVDHSQIMDLECLRGRHLGKDHQSVLSSSYFLF | soluble
3 | MSLENNNEIFKEKSRENFNKTADIYDESHDGKFVAPMYDEIIKRILRANPKTVLDVGCGTGNVLKILAKDENLSLYGLDLSEKMIEIAKKNLKGRAELKLGDSENMPWKSNSFDVIVCNASFHHYPNPKKVLIEMKRILKKDGTLIIGDPTAPVIYRQILNLYCKISNKGDYKLYSKKEIENIMKECGFEPFNFIHINHGSFAVNAKIREGHHHHHH | soluble
4 | MGSDKIHHHHHHDSFKTKSGKELTITFIKHGSLMLTYDNHSIQVDPVSEYADYTTFPKADIILITHEHGDHLDPKAIQAVEKSDTEIIANENSQKKLGKGKVLKNGDTDTSISYMKIEAVPAYNTTPGRDKYHPRHRDNGYILTFDGLRVYIAGDTEDIPEMKDLKDIDIAFLPVNQPYTMTVSQAAKAARMFSPKILYPYHYGDTKIGELKDALKDSGIDVRIRELQ | not soluble
5 | MGHHHHHHSHMTVHIKVYSDYVCPFCFVGKAAFEEAIKGKDVEVEWMPFELRPSPSPQLDPVNDPSKQYMWQTSIQPMAEKLGVEINFPNVSPHPYTDLAFEGFHFAKEYNKGHEYNTRVFQAFFQEDQNIGDIDILTKLAEEVGLDGASFKSALETRTYQDVQRQALKHAYEEADITAVPTFIIGDTVIPGAAGKDVFEKAISDEQKKK | not soluble
6 | MMIRGIRGATTVERDTEEEILQKTKQLLEKIIEENHTKPEDVVQMLLSATPDLHAVFPAKAVRELSGWQYVPVTCMQEMDVTGGLKKCIRVMMTVQTDVPQDQIRHVYLEKAVVLRPDLSLTKNTEL | soluble
7 | QIVDATEALMHDQNSQRITLNMVNSLALHWWIPRMPRLQTYAPQLDVRLSNLSGRFNLEQEGVDAALVHGNPEEWQDYYCEKLSEDELVLVCSPDLIDHSNPVNLSDILKTYPLIEVTNERRKHDWQVWSDATGVARPKNKKPITFNMSIQAVQATTRRLGVLVTHRLFVKDDIKYGQLIELGEPVINPNQQLYFVCPPHKLKQESFHLLRSWLKQEFA | soluble
8 | CGKSEAPPPAQTPEVGIVTLEAQTVTLNTELPGRTNAFRIAEVRPQVNGIILKRLFKEGSDVKAGQQLYQIDPATYEADYQSAQANLASTQEQAQRYKLLVADQAVSKQQYADANAAYLQSKAAVEQARINLRYTKVLSPISGRIGRSAVTEGALVTNGQANAMATVQQLDPIYVDVTQPSTALLRLRRELASGQLERAGDNAAKVSLKLEDGSQYPLEGRLEFSEVSVDEGTGSVTIRAVFPNPNNELLPGMFVHAQLQEGVKQKAILAPQQGVTRDLKGQATALVVNAQNKVELRVIKADRVIGDKWLVTEGLNAGDKIITEGLQFVQPGVEVKTVPAKNVASAQKADAAPAKTDSKG | soluble
9 | GPRRTRTTFTSSQIAELEQHFLQGRYLTAPRLADLSAKLALGTAQVKIWFKNRRRRHKIQSDQHKDQS | soluble
10 | MDYKSKTANDKEISIYYFSATGNSLKLSQDIAAAFGGAGLFRMTPSAGITASDSRIVGFIFPVYMGGLPGIVRRFLESYPFRKGVYYFSIGTYYTYKGCAVSVVDKIMSGKGVRLDYGYNLPTVGNCLKEYEVSSVRRTKILERAELYTSRIIDDLKKGKRKKPFPYCRLSDLLHKGLFNAFFSRSHLNFSLENGCMGCGVCERVCPVNNITLKNGVPRWGTGCEACHACVHWCPRNVIQIGKSKGRLQYHHPAVKRTMLYRVELEHHHHHH | not soluble
11 | AIASIPFSNTHYRIPQGFGNLLEGLTREILREQPDNIPAFAAAYFESLLEKREKTNFDPAEWGSKVEDRFYNNHAFEEQEPPEKSDPKQEESQISGKEEETSVTILDSSEEDKEKEEVAAVKIQAAFRGHIAREEAKKMKTNSLQNEEKEENK | soluble
12 | MGSDKIHHHHHHMLTKERTLQYFHEYFSEWIEIYKRGAVRPVTYQKYLMTLQRLTELSPNLKICELDKRKYQTLLNDYAKTHERQTTMDFHHHLKSAILDAMDEGLLTIDPTRKVIIKGKPVSDKKNKFLSQFELQSLLKSLNLTDKPNWDWFILLVAKTGLRFSEALALTPKDFDFECQKVKISKTWNYKNAEGGFGETKNLSSKRTIQIDIQLNTQIERLSKDLADDEPIFVQGRVFNSTVNNRLKVLCKKAGVPIISAHCLRHTHASLLIFAGVSIASIAKRLGHSSISTTQETYLHIIKELESQDNDKIMSHLSMITQ | not soluble
13 | WKITDEQRQYYVNQFKTIQPDLNGFIPGSAAKEFFTKSKLPILELSHIWELSDFDKDGALTLDEFCAAFHLVVARKNGYDLPEKLPESLMPK | soluble
14 | GSHMSVRIVDVREITKPISSPIRNAYIDFTKMTTSLVAVVTDVVREGKRVVGYGFNSNGRYGQGGLIRERFASRILEADPKKLLNEAGDNLDPDKVWAAMMINEKPGGHGERSVAVGTIDMAVWDAVAKIAGKPLFRLLAERHGVKANPRVFVYAAGGYYYPGKGLSMLRGEMRGYLDRGYNVVKMKIGGAPIEEDRMRIEAVLEEIGKDAQLAVDANGRFNLETGIAYAKMLRDYPLFWYEEVGDPLDYALQAALAEFYPGPMATGENLFSHQDARNLLRYGGMRPDRDWLQFDCALSYGLCEYQRTLEVLKTHGWSPSRCIPHGGHQMSLNIAAGLGLGGNESYPDLFQPYGGFPDGVRVENGHITMPDLPGIGFEGKSDLYKEMKALAE | soluble
15 | MTYPTFALDDITSLHESAQVEFKLARGRDGQGQLPEDIWATYSSFANTLGGEIILGVREDRGHFTIEGIPNPQPVLQEFWEIIDNPSRVSCNILAISDVQLIEIMNKKLIRIRVPLAPEHLKPVFIGTDVYTGSYFRVGDADMHASRKQVMQMLRRAHHCNKLFKARLEHHHHHH | not soluble
16 | MGSDKIHHHHHHMILKTNLFGHTYQFKSITDVLAKANEEKSGDRLAGVAAESAEERVAAKVVLSKMTLGDLRNNPVVPYETDEVTRIIQDQVNDRIHDSIKNWTVEELREWILDHKTTDADIKRVARGLTSEIIAAVTKLMSNLDLIYGAKKIRVIAHANTTIGLPGTFSARLQPNHPTDDPDGILASLMEGLTYGIGDAVIGLNPVDDSTDSVVRLLNKFEEFRSKWDVPTQTCVLAHVKTQMEAMRRGAPTGLVFQSIAGSEKGNTAFGFDGATIEEARQLALQSGAATGPNVMYFETGQGSELSSDAHFGVDQVTMEARCYGFAKKFDPFLVNTVVGFIGPEYLYDSKQVIRAGLEDHFMGKLTGISMGCDVCYTNHMKADQNDVENLSVLLTAAGCNFIMGIPHGDDVMLNYQTTGYHETATLRELFGLKPIKEFDQWMEKMGFSENGKLTSRAGDASIFLK | not soluble
17 | MVNKMDIIPEITRKSITDLINNKERIDGRSLHEFRDISIETGVISKAEGSSRVKLGNTQIIVGVKPQIGEPFPDTPEMGVILTNSELLPMASPTFEPGPPDERSVELSRVVDRCIRESRMIDLEKLCIIEGSKVWMLFLDLHIIDYDGNLFDAAVLATVAALLDTRIPAAEVEDGEVVINREKMQPLPVNRKALMCTFAKIGNEIVLDPSLEEEDILTARISIGVTEEGSICAMQKGGEGPLTRDDVLKAVSIAVEKVPQLIEYLDKSMTP | soluble
18 | MTETATARRSRITPEREAELYEAVLDLLREVGYDALTMDAVAARTRSSKATLYRQWGGKPELVVKAIRHNKPGEIGDVDTGSLRGDLHALMVREDDCTMEQNSALMRGVAMALHQNPDLRQAFREQLIEPEMAEFQRVLQRAVDRGEIRADCPALDFLVHMMVGGFATRTLLDDQPPTREFLASYIDAVILPALGVSTH | not soluble
19 | MKQLTVEDAKQIELEILDYIDTLCKKHNINYIINYGTLIGAVRHEGFIPWDDDIDLSMPREDYQRFINIFQKEKSKYKLLSLETDKNYFNNFIKITDSTTKIIDTRNTKTYESGIFIDIFPIDRFDDPKVIDTCYKLESFKLLSFSKHKNIVYKDSLLKDWIRTAFWLLLRPVSPRYFANKIEKEIQKYSRENGQYMAFIPSKFKEKEVFPSGTFDKTIDLPFENLSLPAPEKFDTILTQFYGDYMTLPPEEKRFYSHEFHAYKLEDLEHHHHHH | soluble
20 | SEKELRSTILFNAYKKEVFTTNTGYKSLQKRLRSNWKIQSLKDEITSEKLIGVKLWITAGPREKFTAAEFEVLKKYLDSGGDILVMLGEGGESRFDTNINFLLEEYGIMVNNDAVVRNVYYKYFHPKEALGSDGVLNREISRAAGKAVPGVIDEENSGNNAQALTFVYPFGATLSVMKPAVAVLSTGSVCFPLNRPILAFYHSKNQGFGKLAVLGSCHMFSDQYLDKEENSKIMDVVFQWLTTGDIHLNQIDAEDPEISDYTMVPDTATLSEQLRVCLQEGDENPRDFTTLFDLSIYQLDTTCLPKVIKAHEELNVKHEPLQLVQPQFEMPLPALQPAVFPPSFRELPPPPLELFDLDETFSSEKARLAQITNKCTDEDLEFYVMKCGDILGVTSKLPKDQQDAKHILEHIFFQVVEFKKLNQEAH | soluble
21 | MGSDKIHHHHHHMKKLIDYLKANKITEVECVISDMTGIARGKIAPVDKFIDEKGMRLPESVLLQTVTGDYVDDDLYDSLLDKADIDFVCVPDENAVFMLPWTVEATAQVIHDTFDKMGNPIELSPRNLLKKVLKLYEDKGWKPVIAPEMEFYLTHRNSDPDMPLIPPVGRSGRKESGRQSFSIDAANEYDPLFEDMYDWCEAQGLDIDTLIHEEGTAQMEINFSHGDALSLADQVFVFKRTLREAALKHDVCATFMAKPVTDEPGSAMHIHQSVVDIKTGKNIFTNEDGTKSAKFLCYIGGLQKYIPELLPLMAPNVNSFRRFLPGTSAPVNLEWGDENRTCGLRIPESSPQNRRIENRIAGADANSYLAIAATLLCGYMGMVEDVKPSTPVQGRANENRQGISLPLTLEEALAVMSESSAVREYLGDTFTSGYIAVKQADLENFRRVISSWEREFLLLTV | not soluble
22 | MGSDKIHHHHHHMTISNQELTLTPLRGKSGKAYIGTYPNGERVFVKYNTTPILPALAKEQIAPQLLWARRTSNGDMMSAQEWLDGRTLTKEDMGSKQIIHILLRLHKSRPLVNQLLQLGYKIENPYDLLMDWEKQTPIQIRENTYLQSIVTELKRSLPEFRTEVATIVHGDIKHSNWVITTSGLIYLVDWDSVRLTDRMYDVAYILSHYIPQKHWKDWLSYYGYKDNEKVWSKIIWYGQFSYLSQIIKCFDKRDMEHVNQEIYELRKFRELIKKHNAS | not soluble
23 | MVIRMAYSELYWQKEEVMPKKELEELQLKRLRWVVRHAYENVAHYRRKLKEAGVHPDDIKKREDIAKIPFTTKKDFAENYPFGLFAVPKEEIVRLHTSSGTTGKPKVVGYTANDLENWINLVARCLYMVGVRKHDIFQNMANYAFFTGGLGIHDGAERIGAMVIPAGVGNTERQVRCMADFGTTAIHSTPSYALHVKEVAEELGVDDKLSLRIGCFGAEPWSENTRKRLEDAFNIKAFDSYGLSEMNGPGVAFECEEQHGLHIWADHYFIEIIDPQTGEPLSEGEKGELVLTPLTKEALPVLRYRTGDITYIMDDECSCGRTHPKIHRILGRSDDMIIVRGINVFPSQIEHVLMQIPEVGDHFQVVITRNGTLDEITVRVEVRDELFTGELFDLQRLQQKVQRELQKELGLRTNVELVEKGTIERSKGKAKRVLDLREEL | not soluble
